Patent CN114276439A (YUDOLONG SUZHOU MEDICAL SCIENCE AND TECH LIMITED COMPANY, dated 2022)

Columns and labels:
[1] = biological target: T1, HPV16假病毒 (HPV16, UniProt P03101 1-505); assay: cell-based or functional assay
T1 sequence: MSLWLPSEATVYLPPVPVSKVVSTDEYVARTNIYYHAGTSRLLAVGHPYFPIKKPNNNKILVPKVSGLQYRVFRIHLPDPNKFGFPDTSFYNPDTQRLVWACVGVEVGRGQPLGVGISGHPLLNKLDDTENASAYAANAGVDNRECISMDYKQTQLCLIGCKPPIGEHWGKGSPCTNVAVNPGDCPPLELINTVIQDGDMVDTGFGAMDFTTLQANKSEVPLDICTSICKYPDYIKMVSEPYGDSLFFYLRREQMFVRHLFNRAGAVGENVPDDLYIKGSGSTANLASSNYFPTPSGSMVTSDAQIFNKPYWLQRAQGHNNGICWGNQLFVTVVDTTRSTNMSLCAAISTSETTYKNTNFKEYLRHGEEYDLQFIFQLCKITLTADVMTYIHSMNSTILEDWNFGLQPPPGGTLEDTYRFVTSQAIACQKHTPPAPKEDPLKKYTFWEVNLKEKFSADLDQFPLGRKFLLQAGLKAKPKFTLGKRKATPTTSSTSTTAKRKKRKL

[2] = biological target: T2, HPV11 VLP (HPV11, UniProt P04012 1-501); assay: indirect ELISA, VLP coated at 0.25 μg/ml
T2 sequence: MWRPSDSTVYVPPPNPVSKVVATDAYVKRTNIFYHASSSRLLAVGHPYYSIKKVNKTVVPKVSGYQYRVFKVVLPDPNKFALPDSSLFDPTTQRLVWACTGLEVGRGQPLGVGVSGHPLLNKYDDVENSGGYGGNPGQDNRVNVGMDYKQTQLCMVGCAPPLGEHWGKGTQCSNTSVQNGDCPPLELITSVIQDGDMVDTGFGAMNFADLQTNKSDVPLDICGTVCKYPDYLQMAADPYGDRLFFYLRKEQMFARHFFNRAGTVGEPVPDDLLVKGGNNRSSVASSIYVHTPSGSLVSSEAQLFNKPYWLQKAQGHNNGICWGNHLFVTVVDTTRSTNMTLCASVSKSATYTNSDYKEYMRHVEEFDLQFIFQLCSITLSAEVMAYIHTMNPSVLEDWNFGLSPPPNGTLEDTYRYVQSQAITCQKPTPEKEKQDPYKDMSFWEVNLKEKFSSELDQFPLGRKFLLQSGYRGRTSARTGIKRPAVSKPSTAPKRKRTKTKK

B1: 单克隆抗体50A11 (antibody, V domains shown)
VH: DVQLQESGPGLVKPSQSLSLTCTVTGYSITSYHAWNWIRQFPGNKLEWMAYINYSGKTSYNPSLKSRISITRDTSKNQFLLQLNSVTTEDTATYYCARVDWEGNYFDYWGQGTTVTVSS
VL: DVLMTQTPLSLPVSLGDQASISCRSSQSILHSNGNTYLQWYLQKPGQSPNLLIYKVSNRFSGVPDRFSGSGSGTDFTLKISRVEAEDLGVYYCFQGSHVPPTFGGGTKLEIKR
notes: constant regions are not
With B1 the HPV16假病毒中和反应IC50 [1] was 1.35 ng/mL and the binding result [2] was “no binding”.
